{"source": "patent US20130171159", "tested_on": "T1, Twist1", "T1 sequence": "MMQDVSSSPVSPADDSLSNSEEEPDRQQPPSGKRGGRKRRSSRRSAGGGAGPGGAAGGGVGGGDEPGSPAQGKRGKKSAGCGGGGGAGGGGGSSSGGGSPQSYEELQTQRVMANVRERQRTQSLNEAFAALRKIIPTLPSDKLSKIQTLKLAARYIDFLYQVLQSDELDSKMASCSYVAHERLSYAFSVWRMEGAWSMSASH"}
{"substance": "Akt (protein kinase B), Akt1 and Akt2 of mouse embryonic fibroblasts", "values": [{"measurement": "Phosphorylation of Twist1 on S42 in Akt1/2-depleted versus wild-type MEFs", "value": "Phosphorylation of Twist1 was not detected in Akt1/2-depleted MEFs under basal conditions or after insulin stimulation, but was high in stimulated wild-type MEFs"}]}
